In publication PMC9481740 (The Journal of Cell Biology, 2022):
Several values for one entry are separate records, joined by “and”; a condition that tells them apart may be missing. Equal entries are not always repeated.

Key:
[1] = target: ^mChSpindly^Y26BPA (human) (UniProt Q96EA4); test: mass photometry; Refeyn TwoMP; sample diluted to a final 10 nM in Spindly buffer (50 mM Hepes pH 8.0, 250 mM NaCl, 2 mM TCEP); crosslinked samples measured after dilution beside untreated controls
[2] = target: the molecule itself; test: not stated; unpublished observations; dimer-tetramer equilibrium, tetramer prevailing at micromolar concentration
[3] = target: the molecule itself; test: crystal structure; Spindly 1-100, Se-SAD, refined to 2.8 Å; Bis-Tris Propane/HCl pH 6.5, 19% PEG3350, 0.2 M potassium thiocyanate
[4] = target: T1, mCherry-tagged full-length Spindly (^mChSpindly^FL) (human), Q96EA4; test: mass photometry; Refeyn TwoMP; sample diluted to a final 10 nM in Spindly buffer (50 mM Hepes pH 8.0, 250 mM NaCl, 2 mM TCEP); crosslinked samples measured after dilution beside untreated controls; conditions: remark: other sources report otherwise
T1 chain: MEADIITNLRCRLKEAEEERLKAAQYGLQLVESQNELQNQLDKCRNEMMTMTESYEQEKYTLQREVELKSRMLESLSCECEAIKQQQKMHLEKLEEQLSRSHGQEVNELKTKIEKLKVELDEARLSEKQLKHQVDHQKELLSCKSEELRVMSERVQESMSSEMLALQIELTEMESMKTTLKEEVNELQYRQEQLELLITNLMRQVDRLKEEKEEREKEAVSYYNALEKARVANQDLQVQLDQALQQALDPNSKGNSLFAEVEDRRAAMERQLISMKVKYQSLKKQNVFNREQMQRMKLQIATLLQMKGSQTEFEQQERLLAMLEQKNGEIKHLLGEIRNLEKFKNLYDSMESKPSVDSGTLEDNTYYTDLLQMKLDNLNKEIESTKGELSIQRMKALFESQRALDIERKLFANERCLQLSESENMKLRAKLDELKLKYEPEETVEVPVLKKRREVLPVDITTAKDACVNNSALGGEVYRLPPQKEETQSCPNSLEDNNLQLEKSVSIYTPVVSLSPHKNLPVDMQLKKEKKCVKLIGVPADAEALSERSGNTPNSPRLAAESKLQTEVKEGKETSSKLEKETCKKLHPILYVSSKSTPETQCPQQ

[5] = target: T2, full-length Spindly without mCherry tag (human), Q96EA4; test: as above; conditions: remark: other sources report otherwise
T2 chain: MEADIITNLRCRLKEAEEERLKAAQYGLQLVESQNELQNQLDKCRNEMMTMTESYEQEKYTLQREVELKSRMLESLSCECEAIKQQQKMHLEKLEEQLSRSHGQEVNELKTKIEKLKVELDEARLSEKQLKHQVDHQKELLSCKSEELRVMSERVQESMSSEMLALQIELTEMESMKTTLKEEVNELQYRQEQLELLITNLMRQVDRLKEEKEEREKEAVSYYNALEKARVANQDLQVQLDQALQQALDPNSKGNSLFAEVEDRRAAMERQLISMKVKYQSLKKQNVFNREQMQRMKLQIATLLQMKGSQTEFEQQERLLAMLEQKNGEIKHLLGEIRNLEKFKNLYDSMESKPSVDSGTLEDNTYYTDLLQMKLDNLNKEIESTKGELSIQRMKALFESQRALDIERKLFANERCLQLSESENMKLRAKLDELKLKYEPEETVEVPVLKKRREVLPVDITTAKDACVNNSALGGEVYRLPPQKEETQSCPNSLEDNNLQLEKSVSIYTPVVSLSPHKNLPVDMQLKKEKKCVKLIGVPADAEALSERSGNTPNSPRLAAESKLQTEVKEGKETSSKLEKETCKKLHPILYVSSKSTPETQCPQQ

^mChSpindly^Y26BPA (from UniProt Q96EA4 1-605) (natural protein)
stoichiometry N [1]: 2

B1: Spindly^1–275 (domain or fragment, human, UniProt Q96EA4 1-275, looked up)
chain: MEADIITNLRCRLKEAEEERLKAAQYGLQLVESQNELQNQLDKCRNEMMTMTESYEQEKYTLQREVELKSRMLESLSCECEAIKQQQKMHLEKLEEQLSRSHGQEVNELKTKIEKLKVELDEARLSEKQLKHQVDHQKELLSCKSEELRVMSERVQESMSSEMLALQIELTEMESMKTTLKEEVNELQYRQEQLELLITNLMRQVDRLKEEKEEREKEAVSYYNALEKARVANQDLQVQLDQALQQALDPNSKGNSLFAEVEDRRAAMERQLISM
notes: source: TnAO38 insect cells (baculovirus), purified (HisTrap, Resource Q, Superdex 200)
stoichiometry N [2]: 2 and 4

B2: Spindly^1–100 (domain or fragment, human, UniProt Q96EA4 1-100, looked up)
chain: MEADIITNLRCRLKEAEEERLKAAQYGLQLVESQNELQNQLDKCRNEMMTMTESYEQEKYTLQREVELKSRMLESLSCECEAIKQQQKMHLEKLEEQLSR
notes: selenomethionine protein was also made for phasing; source: E. coli BL21 (DE3), purified (Ni-Sepharose, ion exchange, S200 SEC); not shown: His6, N-terminal, cleaved
stoichiometry N [3]: 2

B3: mCherry-tagged full-length Spindly (^mChSpindly^FL), Q96EA4 1-605 (natural protein)
chain: MEADIITNLRCRLKEAEEERLKAAQYGLQLVESQNELQNQLDKCRNEMMTMTESYEQEKYTLQREVELKSRMLESLSCECEAIKQQQKMHLEKLEEQLSRSHGQEVNELKTKIEKLKVELDEARLSEKQLKHQVDHQKELLSCKSEELRVMSERVQESMSSEMLALQIELTEMESMKTTLKEEVNELQYRQEQLELLITNLMRQVDRLKEEKEEREKEAVSYYNALEKARVANQDLQVQLDQALQQALDPNSKGNSLFAEVEDRRAAMERQLISMKVKYQSLKKQNVFNREQMQRMKLQIATLLQMKGSQTEFEQQERLLAMLEQKNGEIKHLLGEIRNLEKFKNLYDSMESKPSVDSGTLEDNTYYTDLLQMKLDNLNKEIESTKGELSIQRMKALFESQRALDIERKLFANERCLQLSESENMKLRAKLDELKLKYEPEETVEVPVLKKRREVLPVDITTAKDACVNNSALGGEVYRLPPQKEETQSCPNSLEDNNLQLEKSVSIYTPVVSLSPHKNLPVDMQLKKEKKCVKLIGVPADAEALSERSGNTPNSPRLAAESKLQTEVKEGKETSSKLEKETCKKLHPILYVSSKSTPETQCPQQ
stoichiometry N [4]: 2

B4: full-length Spindly without mCherry tag, Q96EA4 1-605 (natural protein)
chain: MEADIITNLRCRLKEAEEERLKAAQYGLQLVESQNELQNQLDKCRNEMMTMTESYEQEKYTLQREVELKSRMLESLSCECEAIKQQQKMHLEKLEEQLSRSHGQEVNELKTKIEKLKVELDEARLSEKQLKHQVDHQKELLSCKSEELRVMSERVQESMSSEMLALQIELTEMESMKTTLKEEVNELQYRQEQLELLITNLMRQVDRLKEEKEEREKEAVSYYNALEKARVANQDLQVQLDQALQQALDPNSKGNSLFAEVEDRRAAMERQLISMKVKYQSLKKQNVFNREQMQRMKLQIATLLQMKGSQTEFEQQERLLAMLEQKNGEIKHLLGEIRNLEKFKNLYDSMESKPSVDSGTLEDNTYYTDLLQMKLDNLNKEIESTKGELSIQRMKALFESQRALDIERKLFANERCLQLSESENMKLRAKLDELKLKYEPEETVEVPVLKKRREVLPVDITTAKDACVNNSALGGEVYRLPPQKEETQSCPNSLEDNNLQLEKSVSIYTPVVSLSPHKNLPVDMQLKKEKKCVKLIGVPADAEALSERSGNTPNSPRLAAESKLQTEVKEGKETSSKLEKETCKKLHPILYVSSKSTPETQCPQQ
stoichiometry N [5]: 2
